Experimental data published in PMC7060279, “CCN1 is an opsonin for bacterial clearance and a direct activator of Toll-like receptor signaling” (Nature Communications, 2020).

Tests used:
[1] = target: T1, human recombinant TLR2 protein (human, UniProt O60603 21-588); assay: SPR; Biacore T-200; TLR2, TLR4 and integrin αvβ3 immobilised on a CM5 chip by amine coupling; CCN1 as analyte at 25 µl per min, 25 °C, phosphate buffer with 350 mM NaCl, 0.5 mM CaCl2, 0.5 mM MgCl2, 10 µg per ml BSA; global fit to 1:1 Langmuir model, KD = kd/ka; conditions: both partners purified
T1 construct: Toll-like receptor 2, human, recombinant protein from R&D systems; also called hTLR2; source: bought: R&D systems

[2] = target: T2, human recombinant TLR4 protein (without MD2) (human, UniProt O00206 24-631); assay: as above; conditions: both partners purified
T2 construct: also called hTLR4; source: bought: R&D systems
T2 sequence (O00206 24-631): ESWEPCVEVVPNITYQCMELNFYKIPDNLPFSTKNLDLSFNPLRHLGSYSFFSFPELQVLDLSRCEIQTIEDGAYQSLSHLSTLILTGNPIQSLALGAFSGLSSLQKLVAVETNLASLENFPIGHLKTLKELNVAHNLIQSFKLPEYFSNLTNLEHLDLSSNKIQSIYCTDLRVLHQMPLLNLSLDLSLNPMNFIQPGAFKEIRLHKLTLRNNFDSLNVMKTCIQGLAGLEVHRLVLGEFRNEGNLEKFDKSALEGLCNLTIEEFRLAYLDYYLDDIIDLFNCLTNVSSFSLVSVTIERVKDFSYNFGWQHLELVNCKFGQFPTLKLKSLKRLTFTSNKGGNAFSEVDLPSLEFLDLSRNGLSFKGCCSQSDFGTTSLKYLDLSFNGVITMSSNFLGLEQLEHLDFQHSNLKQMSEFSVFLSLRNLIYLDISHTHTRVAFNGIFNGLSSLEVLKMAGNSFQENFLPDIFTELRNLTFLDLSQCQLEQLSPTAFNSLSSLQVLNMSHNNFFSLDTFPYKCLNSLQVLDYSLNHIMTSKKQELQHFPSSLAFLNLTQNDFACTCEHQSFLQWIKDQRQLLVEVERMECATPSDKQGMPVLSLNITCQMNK

T1 sequence (O60603 21-588): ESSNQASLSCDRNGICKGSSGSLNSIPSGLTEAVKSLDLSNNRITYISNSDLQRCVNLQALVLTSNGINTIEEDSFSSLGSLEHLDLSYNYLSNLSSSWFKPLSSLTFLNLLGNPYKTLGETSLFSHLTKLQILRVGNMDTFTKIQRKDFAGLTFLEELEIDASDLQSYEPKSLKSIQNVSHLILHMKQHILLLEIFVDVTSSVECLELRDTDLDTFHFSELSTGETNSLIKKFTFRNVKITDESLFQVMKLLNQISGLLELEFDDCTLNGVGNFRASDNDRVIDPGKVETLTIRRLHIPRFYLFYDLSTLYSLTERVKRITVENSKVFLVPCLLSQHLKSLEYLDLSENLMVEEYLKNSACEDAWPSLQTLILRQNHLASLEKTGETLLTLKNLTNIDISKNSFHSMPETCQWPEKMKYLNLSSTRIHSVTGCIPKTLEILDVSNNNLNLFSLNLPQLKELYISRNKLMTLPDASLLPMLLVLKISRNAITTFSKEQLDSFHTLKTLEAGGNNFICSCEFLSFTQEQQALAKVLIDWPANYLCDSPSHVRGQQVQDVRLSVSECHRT

- Kd [1]: 227 nM
- Kd [2]: 291 nM
B1: CCN1-WT (recombinant matricellular protein CCN1) (natural protein, UniProt P18406 25-379, looked up)
chain: TCPAACHCPLEAPKCAPGVGLVRDGCGCCKVCAKQLNEDCSKTQPCDHTKGLECNFGASSTALKGICRAQSEGRPCEYNSRIYQNGESFQPNCKHQCTCIDGAVGCIPLCPQELSLPNLGCPNPRLVKVSGQCCEEWVCDEDSIKDSLDDQDDLLGLDASEVELTRNNELIAIGKGSSLKRLPVFGTEPRVLFNPLHAHGQKCIVQTTSWSQCSKSCGTGISTRVTNDNPECRLVKETRICEVRPCGQPVYSSLKKGKKCSKTKKSPEPVRFTYAGCSSVKKYRPKYCGSCVDGRCCTPLQTRTVKMRFRCEDGEMFSKNVMMIQSCKCNYNCPHPNEASFRLYSLFNDIHKFRD
notes: CCN1 (CYR61), 40 kDa matricellular protein with IGFBP, vWC, TSR and CT domains; also called CYR61; Cyr61
